Laboratory results from PMC2908316 (Journal of biomolecular screening, 2009).

Tests used:
[1] = biological target: T1, RGS7 RH domain, GST-fusion protein, biotinylated (UniProt P49802 333-448, biotin on amines (Biotin-NHS, 3:1 biotin:RGS)); test: flow cytometry protein interaction assay
T1 sequence (looked up): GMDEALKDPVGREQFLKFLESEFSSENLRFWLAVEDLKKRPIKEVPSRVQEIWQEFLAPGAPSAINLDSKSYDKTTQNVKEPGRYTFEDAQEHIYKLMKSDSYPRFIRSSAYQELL

[2] = biological target: T2, full-length RGS8, GST-fusion protein, biotinylated (UniProt P49804 1-180, biotin on amines (Biotin-NHS, 3:1 biotin:RGS)); test: flow cytometry protein interaction assay
T2 sequence (looked up): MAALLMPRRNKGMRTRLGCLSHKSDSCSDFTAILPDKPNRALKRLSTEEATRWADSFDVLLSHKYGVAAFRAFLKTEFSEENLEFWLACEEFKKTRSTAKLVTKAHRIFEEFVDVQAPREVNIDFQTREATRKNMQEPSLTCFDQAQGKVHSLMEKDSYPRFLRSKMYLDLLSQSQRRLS

- bead-associated fluorescence, positive control mean (with AlF4-) [1]: 948
- bead-associated fluorescence, positive control mean (with AlF4-) [2]: 2060
B1: Rat Gαo, N-terminal 6X-HIS tagged, labeled with AlexaFluor 532 (natural protein, UniProt P59215 1-354, looked up)
chain: MGCTLSAEERAALERSKAIEKNLKEDGISAAKDVKLLLLGAGESGKSTIVKQMKIIHEDGFSGEDVKQYKPVVYSNTIQSLAAIVRAMDTLGVEYGDKERKADSKMVCDVVSRMEDTEPFSAELLSAMMRLWGDSGIQECFNRSREYQLNDSAKYYLDSLDRIGAADYQPTEQDILRTRVKTTGIVETHFTFKNLHFRLFDVGGQRSERKKWIHCFEDVTAIIFCVALSGYDQVLHEDETTNRMHESLMLFDSICNNKFFIDTSIILFLNKKDLFGEKIKKSPLTICFPEYPGSNTYEDAAAYIQTQFESKNRSPNKEIYCHMTCATDTNNIQVVFDAVTDIIIANNLRGCGLY
modifications: AlexaFluor 532 carboxylic acid succinimidyl ester label, 3:1 fluorophore:protein ratio
